Assay results reported in patent US20050276799A1 (PDL BIOPHARMA, published 2005).
Like-named read-outs stand apart in the source and are kept apart here.

Legend:
[1] = target: T1, recombinant, GPI-linked rhesus FcRn on cell line NS0 RhFcRn, clone R-3 (rhesus, UniProt H9Z6D2 24-297; Q6V7J5 21-119, GPI-linked); experiment: IC50 of wild-type / IC50 of this antibody, same assay
T1 construct: Expressed from pDL410 on the surface of NS0 cells; not shown: human c-myc decapeptide flanked by linker peptides, then GPI linkage signal of human decay accelerating factor (vector p)

[2] = target: T2, recombinant, GPI-linked human FcRn on cell line NS0 HuFcRn (memb), clone 7-3 (human, UniProt P55899 24-297; P61769 21-119); experiment: competition FACS vs biotinylated OST577-IgG2M3 on NS0 cells expressing human FcRn, FBB pH 6.0
T2 construct: Expressed from pDL208 on the surface of NS0 cells; also called human neonatal Fc receptor; not shown: human c-myc decapeptide flanked by linker peptides, then GPI linkage signal of human decay accelerating factor (vector p)

[3] = target: T1, recombinant, GPI-linked rhesus FcRn on …; experiment: competition FACS vs biotinylated OST577-IgG2M3 on NS0 cells expressing rhesus FcRn, FBB pH 6.0
[4] = target: T2, recombinant, GPI-linked human FcRn on …; experiment: IC50 of wild-type / IC50 of this antibody, same assay
[5] = target: T2, recombinant, GPI-linked human FcRn on …; experiment: competition FACS vs biotinylated HuEP5C7-IgG2M3 on NS0 cells expressing human FcRn, FSB pH 6.0
[6] = target: T2, recombinant, GPI-linked human FcRn on …; experiment: IC50 of wild-type / IC50 of this antibody, same assay; remark: listed apart in the source
[7] = target: T2, recombinant, GPI-linked human FcRn on …; experiment: competition FACS vs biotinylated OST577-IgG1 on NS0 cells expressing human FcRn, FBB pH 6.0
[8] = target: T2, recombinant, GPI-linked human FcRn on …; experiment: IC50 of wild-type / IC50 of this antibody, same assay; remark: listed apart in the source

Row | Binder | IC50 [5] [µg/mL] | Relative Binding [6] [ratio] | IC50 [7] [µg/mL] | Relative Binding [8] [ratio] | other results
1 | OST577-IgG2M3 M428L (antibody) heavy: QVQLVESGGGVVQPGRSLRLSCAASGFTFSRYGMHWVRQAPGKGLEWVAVISYDGSNKWYADSVKGRFTISRDNSKNTLFLQMHSLRAADTGVYFCAKDQLYFGSQSPGHYWGQGTLVTVSSASTKGPSVFPLAPCSRSTSESTAALGCLVKDYFPEPVTVSWNSGALTSGVHTFPAVLQSSGLYSLSSVVTVPSSNFGTQTYTCNVDHKPSNTKVDKTVERKCCVECPPCPAPPAAAPSVFLFPPKPKDTLMISRTPEVTCVVVDVSHEDPEVQFNWYVDGVEVHNAKTKPREEQFNSTFRVVSVLTVVHQDWLNGKEYKCKVSNKGLPAPIEKTISKTKGQPREPQVYTLPPSREEMTKNQVSLTCLVKGFYPSDIAVEWESNGQPENNYKTTPPMLDSDGSFFLYSKLTVDKSRWQQGNVFSCSVLHEALHNHYTQKSLSLSPSK light: SYVLTQPPSVSVAPGQTARITCGGDNIGSKSVNWFQQKPGQAPVLVVYDDNERPSGISERFSGSNSGNTATLTISRVEAGDEADYYCQVWDSSSDHVVFGGGTKLTVLGQPKAAPSVTLFPPSSEELQANKATLVCLISDFYPGAVTVAWKADSSPVKAGVETTTPSKQSNNKYAASSYLSLTPEQWKSHRSYSCQVTHEGSTVEKTVAPTECS |  |  |  |  | Relative Binding [1]: 7.7 ratio; IC50 [2]: 1.79 µg/mL; IC50 [3]: 1.92 µg/mL; Relative Binding [4]: 6.7 ratio
2 | OST577-IgG2M3 T250V (antibody) heavy: QVQLVESGGGVVQPGRSLRLSCAASGFTFSRYGMHWVRQAPGKGLEWVAVISYDGSNKWYADSVKGRFTISRDNSKNTLFLQMHSLRAADTGVYFCAKDQLYFGSQSPGHYWGQGTLVTVSSASTKGPSVFPLAPCSRSTSESTAALGCLVKDYFPEPVTVSWNSGALTSGVHTFPAVLQSSGLYSLSSVVTVPSSNFGTQTYTCNVDHKPSNTKVDKTVERKCCVECPPCPAPPAAAPSVFLFPPKPKDVLMISRTPEVTCVVVDVSHEDPEVQFNWYVDGVEVHNAKTKPREEQFNSTFRVVSVLTVVHQDWLNGKEYKCKVSNKGLPAPIEKTISKTKGQPREPQVYTLPPSREEMTKNQVSLTCLVKGFYPSDIAVEWESNGQPENNYKTTPPMLDSDGSFFLYSKLTVDKSRWQQGNVFSCSVMHEALHNHYTQKSLSLSPSK light: SYVLTQPPSVSVAPGQTARITCGGDNIGSKSVNWFQQKPGQAPVLVVYDDNERPSGISERFSGSNSGNTATLTISRVEAGDEADYYCQVWDSSSDHVVFGGGTKLTVLGQPKAAPSVTLFPPSSEELQANKATLVCLISDFYPGAVTVAWKADSSPVKAGVETTTPSKQSNNKYAASSYLSLTPEQWKSHRSYSCQVTHEGSTVEKTVAPTECS | 19 | 0.56 |  |  | 
3 | OST577-IgG1 M428F (antibody) heavy: not shown light: SYVLTQPPSVSVAPGQTARITCGGDNIGSKSVNWFQQKPGQAPVLVVYDDNERPSGISERFSGSNSGNTATLTISRVEAGDEADYYCQVWDSSSDHVVFGGGTKLTVLGQPKAAPSVTLFPPSSEELQANKATLVCLISDFYPGAVTVAWKADSSPVKAGVETTTPSKQSNNKYAASSYLSLTPEQWKSHRSYSCQVTHEGSTVEKTVAPTECS |  |  | 3.44 | 4 | 
4 | OST577-IgG1 T250E/M428F (antibody) heavy: not shown light: SYVLTQPPSVSVAPGQTARITCGGDNIGSKSVNWFQQKPGQAPVLVVYDDNERPSGISERFSGSNSGNTATLTISRVEAGDEADYYCQVWDSSSDHVVFGGGTKLTVLGQPKAAPSVTLFPPSSEELQANKATLVCLISDFYPGAVTVAWKADSSPVKAGVETTTPSKQSNNKYAASSYLSLTPEQWKSHRSYSCQVTHEGSTVEKTVAPTECS |  |  | 0.99 | 14 | 
5 | OST577-IgG2M3 T250A (antibody) heavy: QVQLVESGGGVVQPGRSLRLSCAASGFTFSRYGMHWVRQAPGKGLEWVAVISYDGSNKWYADSVKGRFTISRDNSKNTLFLQMHSLRAADTGVYFCAKDQLYFGSQSPGHYWGQGTLVTVSSASTKGPSVFPLAPCSRSTSESTAALGCLVKDYFPEPVTVSWNSGALTSGVHTFPAVLQSSGLYSLSSVVTVPSSNFGTQTYTCNVDHKPSNTKVDKTVERKCCVECPPCPAPPAAAPSVFLFPPKPKDALMISRTPEVTCVVVDVSHEDPEVQFNWYVDGVEVHNAKTKPREEQFNSTFRVVSVLTVVHQDWLNGKEYKCKVSNKGLPAPIEKTISKTKGQPREPQVYTLPPSREEMTKNQVSLTCLVKGFYPSDIAVEWESNGQPENNYKTTPPMLDSDGSFFLYSKLTVDKSRWQQGNVFSCSVMHEALHNHYTQKSLSLSPSK light: SYVLTQPPSVSVAPGQTARITCGGDNIGSKSVNWFQQKPGQAPVLVVYDDNERPSGISERFSGSNSGNTATLTISRVEAGDEADYYCQVWDSSSDHVVFGGGTKLTVLGQPKAAPSVTLFPPSSEELQANKATLVCLISDFYPGAVTVAWKADSSPVKAGVETTTPSKQSNNKYAASSYLSLTPEQWKSHRSYSCQVTHEGSTVEKTVAPTECS | 13.3 | 0.8 |  |  | 
6 | OST577-IgG2M3 T250S (antibody) heavy: QVQLVESGGGVVQPGRSLRLSCAASGFTFSRYGMHWVRQAPGKGLEWVAVISYDGSNKWYADSVKGRFTISRDNSKNTLFLQMHSLRAADTGVYFCAKDQLYFGSQSPGHYWGQGTLVTVSSASTKGPSVFPLAPCSRSTSESTAALGCLVKDYFPEPVTVSWNSGALTSGVHTFPAVLQSSGLYSLSSVVTVPSSNFGTQTYTCNVDHKPSNTKVDKTVERKCCVECPPCPAPPAAAPSVFLFPPKPKDSLMISRTPEVTCVVVDVSHEDPEVQFNWYVDGVEVHNAKTKPREEQFNSTFRVVSVLTVVHQDWLNGKEYKCKVSNKGLPAPIEKTISKTKGQPREPQVYTLPPSREEMTKNQVSLTCLVKGFYPSDIAVEWESNGQPENNYKTTPPMLDSDGSFFLYSKLTVDKSRWQQGNVFSCSVMHEALHNHYTQKSLSLSPSK light: SYVLTQPPSVSVAPGQTARITCGGDNIGSKSVNWFQQKPGQAPVLVVYDDNERPSGISERFSGSNSGNTATLTISRVEAGDEADYYCQVWDSSSDHVVFGGGTKLTVLGQPKAAPSVTLFPPSSEELQANKATLVCLISDFYPGAVTVAWKADSSPVKAGVETTTPSKQSNNKYAASSYLSLTPEQWKSHRSYSCQVTHEGSTVEKTVAPTECS | 12 | 0.89 |  |  | 
7 | OST577-IgG2M3 T250Q (antibody) heavy: QVQLVESGGGVVQPGRSLRLSCAASGFTFSRYGMHWVRQAPGKGLEWVAVISYDGSNKWYADSVKGRFTISRDNSKNTLFLQMHSLRAADTGVYFCAKDQLYFGSQSPGHYWGQGTLVTVSSASTKGPSVFPLAPCSRSTSESTAALGCLVKDYFPEPVTVSWNSGALTSGVHTFPAVLQSSGLYSLSSVVTVPSSNFGTQTYTCNVDHKPSNTKVDKTVERKCCVECPPCPAPPAAAPSVFLFPPKPKDQLMISRTPEVTCVVVDVSHEDPEVQFNWYVDGVEVHNAKTKPREEQFNSTFRVVSVLTVVHQDWLNGKEYKCKVSNKGLPAPIEKTISKTKGQPREPQVYTLPPSREEMTKNQVSLTCLVKGFYPSDIAVEWESNGQPENNYKTTPPMLDSDGSFFLYSKLTVDKSRWQQGNVFSCSVMHEALHNHYTQKSLSLSPSK light: SYVLTQPPSVSVAPGQTARITCGGDNIGSKSVNWFQQKPGQAPVLVVYDDNERPSGISERFSGSNSGNTATLTISRVEAGDEADYYCQVWDSSSDHVVFGGGTKLTVLGQPKAAPSVTLFPPSSEELQANKATLVCLISDFYPGAVTVAWKADSSPVKAGVETTTPSKQSNNKYAASSYLSLTPEQWKSHRSYSCQVTHEGSTVEKTVAPTECS |  |  |  |  | Relative Binding [1]: 3.6 ratio; IC50 [2]: 4.2 µg/mL; IC50 [3]: 4.05 µg/mL; Relative Binding [4]: 2.8 ratio
8 | OST577-IgG1 T250E (antibody) heavy: not shown light: SYVLTQPPSVSVAPGQTARITCGGDNIGSKSVNWFQQKPGQAPVLVVYDDNERPSGISERFSGSNSGNTATLTISRVEAGDEADYYCQVWDSSSDHVVFGGGTKLTVLGQPKAAPSVTLFPPSSEELQANKATLVCLISDFYPGAVTVAWKADSSPVKAGVETTTPSKQSNNKYAASSYLSLTPEQWKSHRSYSCQVTHEGSTVEKTVAPTECS |  |  | 5.26 | 2.6 | 
